1 molecule from patent US12102667B2, “Polypeptides and antibiotics against gram-negative bacterium comprising the same” (priority 2021, dated 2024) can be followed below.

For one data set, the system named is K. pneumoniae. The data set can be described thus: Antibacterial activity analysis (colony count after 2 hours in buffer). The format is cell-based, Klebsiella pneumoniae. The settings on record: 2 μM. On the procedure:
(§1) The antibacterial activity of the purified protein was tested for E. coli and various K. pneumoniae strains. The bacterium were grown to an exponential phase (OD600=0.5) and harvested by centrifugation at 12,000×g for 3 minutes. Then, the pellets were washed with reaction buffer solution (20 mM Tris-HCl, pH 7.5) and diluted to about 10^6 cells/ml in the buffer solution. Then, 100 μl bacterial suspension was mixed with the purified endolysin of 100 μl in the reaction buffer solution and incubated at 37° C. for 2 hours. Finally, the mixture was diluted with PBS and loaded on an LB plate. After culturing at 37° C. overnight, the bacterial colonies were counted. All the analysis was performed in triplicate.
(§2) The same reaction was performed for the selected subject bacterium in 20 mM HEPES-NaOH, 150 mM NaCl [pH 7.4], and the unique antibacterial activity of Tris and dependence of endolysin for turgor pressure were excluded (FIG. 10a and FIG. 10b). […] The bacterial cells grown geometrically were cultured with 2 μM endolysin in low tonicity buffers (20 mM Tris-HCl, pH 7.5 or 20 mM HEPES, pH 7.5) or high tonicity buffers (buffer solution comprising 150 mM NaCl) at 37° C. for 2 hours. The cells treated with storage buffer solution (20 mM Tris-HCl, pH 7.5, 150 mM NaCl buffer solution (pH 7.5)) were used as a negative control group. The dotted line represents the detection limit (1 Log CFU/ml).

The test system of data set [1] is Acinetobacter baumannii (ATCC19606). Description: Killing activity of endolysin, in vitro test. Conditions: 2 μM, 37° C., 2 hours, 20 mM Tris-Cl pH 7.5. The format is cell-based. Here is the method: (§3) For this, endolysin EC340 at a concentration of 2 μM and each test bacterium were added to reaction buffer (20 mM Tris-Cl, pH 7.5) so that the final concentration was to be 200 μl, and were left at 37° C. for 2 hours. After 2 hours, the number of colonies of Acinetobacter baumannii, Pseudomonas aeruginosa and Escherichia coli was confirmed, and the result was shown in FIG. 3.

Data set [2] has as its system Pseudomonas aeruginosa (ATCC 13388). Description: Killing activity of endolysin, in vitro test. The format is cell-based. The settings on record: 2 μM, 37° C., 2 hours, 20 mM Tris-Cl pH 7.5. On the procedure:
as §3

In another data set the test system is E. coli ATCC 8739. The data set can be described thus: Zymogram assay. Conditions: 3 μg purified endolysin, gel with autoclaved E. coli ATCC 8739. The format is biochemical, Escherichia coli. On the procedure: Zymogram assay was performed with some modifications of the previously described method (Khakhum et al., 2016). In other words, an overnight culture of E. coli ATCC 8739 was harvested, washed with phosphate buffered solution (PBS) once, and then harvested by centrifugation at 4,000×g for 15 minutes. Then, the pellets were resuspended in 3 ml of deionized water. The cells were autoclaved and added to a 15% SDS-PAGE gel prior to polymerization. Then, 3 μg of purified endolysin (EC340, mtEC340 or LNT113) was mixed with 2× sample buffer (0.5 mM Tris-HCl, pH 6.8, 20% glycerol, 0.2% bromophenol blue) and loaded on SDS-PAGE. After electrophoresis, the gel was washed with deionized water for 1 hour and incubated in reaction buffer (1% Triton X-100, 20 mM Tris-HCl, pH 7.5) at a room temperature.

For data set [3], the system named is E. coli. Description: Antibacterial activity analysis (colony count after 2 hours in buffer). The format is cell-based, Escherichia coli. The settings on record: 2 μM. Here is the method: as §1, §2, §3
In data set [4] the test system is E. coli. Description: Checkerboard assay (MIC in combination, FIC index). The format is cell-based, Escherichia coli. Conditions: E. coli ATCC8738. Here is the method: LNT113 was vertically diluted 2-fold and the antibiotic was serially diluted horizontally in a 96-well plate. Bacterium at a concentration of 10^6 CFU/ml were added to each well in a CAA medium. […] The fractional inhibitory concentration (FIC) for the LNT113 or antibiotic was calculated by dividing the MIC of two drugs by combining it with the MIC of each drug alone. […] The FICI was considered as a synergistic effect ≤0.5, an additive >0.5 ˜≤1, an independent effect (indifference)>1.0 ˜≤2, and an antagonistic effect (antagonism) >2.

Some results are limits rather than exact numbers.

B1: EC340: endolysin of E. coli bacteriophage PBEC131 (EC340-M-11-12), 162 amino acids (protein)
chain: VSRNISNNGIKFTAAFEGFRGTAYRATPNEKYLTIGYGHYGPDVTPGKTITPGQGLLLLNRDMAKAVAAVDAAAHHSLTQAQFDAVCDLVYNAGAGVIAATTGTGKALRSGDIATLRAKLALFINQNGKPLLGLRRRTAGRLALFDGKPWQEAEAIGRAVKG
modifications: synthetic_EC340
notes: endolysin of E. coli bacteriophage PBEC131 (EC340-M-11-12), 162 amino acids
In the case of B1, the “antibacterial activity (number of bacterium)” value with K. pneumoniae (K. pneumoniae ATCC700603, KCTC2208, CCARM10143, F85, 2 hours, Tris-HCl pH 7.5) is “excellent antibacterial activity”; in the data set on E. coli [3] (E. coli ATCC8739, ATCC25922, CCARM1A746, CCARM1B684, 2 hours, Tris-HCl pH 7.5) it was “excellent antibacterial activity”. In addition, the “effect of adding NaCl on antibacterial activity” value in the data set on K. pneumoniae (K. pneumoniae KCTC 2208, Tris or Hepes buffer with 150 mM NaCl) is given as “almost inactivated”; in the data set with E. coli [3] (E. coli ATCC 8739, Tris or Hepes buffer with 150 mM NaCl), “almost inactivated”. In addition, the killing activity entry in data set [1] is listed as “had the killing activity”; in data set [2] it was “had the killing activity”; in the data set on E. coli [3] (Escherichia coli (ATCC 8739), 37° C., 2 hours, 20 mM Tris-Cl pH 7.5) it was “had the killing activity”. In addition, in the data set on E. coli ATCC 8739, the “enzymatic activity in zymogram” value is “enzymatic activity was observed”. Further, the “MIC of endolysin combined with colistin: EC340” value with E. coli [4] (Colistin 0) is above 128 mg/L; in the data set on E. coli [4] (Colistin 0.0625), 32 mg/L; with E. coli [4] (Colistin 0.125) it was 16 mg/L; with E. coli [4] (Colistin 0.25), below 2 mg/L.
